Test results as given in patent US20230083670A1 (published 2023).

Target: PD-L1 on CHO cells expressing human PD-L1 (CHO-PDL1) (human, UniProt Q9NZQ7 19-290)
Assay: flow cytometry cell binding; CHO-PD-L1 cells

Chain of PD-L1 on CHO cells expressing human PD-L1 (CHO-PDL1) (Q9NZQ7 19-290): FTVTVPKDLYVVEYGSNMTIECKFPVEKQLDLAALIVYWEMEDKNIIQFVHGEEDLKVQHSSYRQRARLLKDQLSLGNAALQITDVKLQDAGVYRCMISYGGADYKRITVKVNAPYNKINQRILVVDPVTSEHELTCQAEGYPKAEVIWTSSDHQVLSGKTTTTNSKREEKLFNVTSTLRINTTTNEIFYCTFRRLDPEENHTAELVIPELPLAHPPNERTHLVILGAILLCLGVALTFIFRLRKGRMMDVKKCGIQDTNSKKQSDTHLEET

B1: IMM2515 (antibody, V domains shown)
VH: QVQLVQSGAEVKKPGASVKVSCKASGYTFTSNWMHWVRQAPGQGLEWMGMIHPNSGSSNYNEKFKSRVTMTRDTSTSTVYMELSSLRSEDTAVYYCARSYYGSSPYYFDYWGQGTLVTVSS
VL: DIQMTQSPSSLSASVGDRVTITCRASQDIINYLNWYQQKPGKAPKLLIYYTSRLHSGVPSRFSGSGSGTDFTFTISSLQPEDIATYYCQQGDTLPWTFGQGTKVEIKR
EC50: 0.0511 nM
